The target in this data set is T1, RIG-I full length (UniProt O95786 O95786:1-925).
T1 sequence: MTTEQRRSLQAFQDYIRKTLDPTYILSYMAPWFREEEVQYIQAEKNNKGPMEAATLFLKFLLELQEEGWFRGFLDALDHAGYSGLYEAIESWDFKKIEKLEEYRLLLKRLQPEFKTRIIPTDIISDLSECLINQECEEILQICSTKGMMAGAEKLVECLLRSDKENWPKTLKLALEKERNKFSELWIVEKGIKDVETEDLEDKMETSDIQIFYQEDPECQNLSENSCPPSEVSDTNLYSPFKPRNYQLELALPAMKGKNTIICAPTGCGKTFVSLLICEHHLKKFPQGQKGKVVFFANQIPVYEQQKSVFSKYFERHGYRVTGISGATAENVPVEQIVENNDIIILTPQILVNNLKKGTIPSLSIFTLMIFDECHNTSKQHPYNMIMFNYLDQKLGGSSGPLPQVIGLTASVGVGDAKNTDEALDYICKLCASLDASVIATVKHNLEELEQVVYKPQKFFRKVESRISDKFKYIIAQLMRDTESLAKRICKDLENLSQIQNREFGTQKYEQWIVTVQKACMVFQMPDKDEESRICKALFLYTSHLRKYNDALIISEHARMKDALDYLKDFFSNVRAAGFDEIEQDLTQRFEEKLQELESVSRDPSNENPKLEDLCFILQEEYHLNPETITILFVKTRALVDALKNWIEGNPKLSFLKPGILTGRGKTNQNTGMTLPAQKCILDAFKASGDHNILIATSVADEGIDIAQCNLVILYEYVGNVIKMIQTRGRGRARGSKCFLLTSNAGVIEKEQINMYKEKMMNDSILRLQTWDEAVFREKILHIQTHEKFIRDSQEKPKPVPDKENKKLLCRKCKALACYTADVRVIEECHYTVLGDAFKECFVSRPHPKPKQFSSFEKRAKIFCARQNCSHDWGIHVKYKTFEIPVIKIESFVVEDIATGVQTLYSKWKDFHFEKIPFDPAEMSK
Briefly: EMSA; with ATP; 6 pmol RNA, 0-20 pmol RIG-I; affinity equivalent to poly U/UC. The settings on record: stem-loop motif 70-114, complementary 5' and 3' ends.

Results on one molecule are retold here after US10624964, “Methods and compositions for stimulating immune response using potent immunostimulatory RNA motifs” (The Trustees of the University of Pennsylvania).

B1: DVG-268 ivtRNA (ssRNA)
RNA: ACCAGACAAGAGUUUAAGAGAUAUGUAUCCUUUUAAAUUUUCUUGUCUUCUUGUAAGUUUUUCUUGCUAUUGUCAUAUGGAUAAGUCCAAGACUAUCUUUAUCUAUGUCCACAAGAUUGGUAACUGGGUCAUUCCCUGACCAGAAGUUUGAAGCAAGACUUCCCGGUACCUGGAAGUCUUGGACUUAUCCAUAUGACAAUAGUAAGAAAAACUUACAAGAAGACAAGAAAAUUUAAUAGGAUACAUAUCUCUUAAACUCUUGUCUGGU
modifications: 5'-triphosphate (T7 transcript)
On to B1, for which the binding result is reported as “binds”.
